Results published in patent US20230340071A1 (published 2023).

How the values were obtained:
[1] = target: T1, human IL-2 receptor (IL-2Rβγc) on cells (human, UniProt P14784 27-551; P31785 23-369); experiment: cell-based or functional assay
T1 sequence 1: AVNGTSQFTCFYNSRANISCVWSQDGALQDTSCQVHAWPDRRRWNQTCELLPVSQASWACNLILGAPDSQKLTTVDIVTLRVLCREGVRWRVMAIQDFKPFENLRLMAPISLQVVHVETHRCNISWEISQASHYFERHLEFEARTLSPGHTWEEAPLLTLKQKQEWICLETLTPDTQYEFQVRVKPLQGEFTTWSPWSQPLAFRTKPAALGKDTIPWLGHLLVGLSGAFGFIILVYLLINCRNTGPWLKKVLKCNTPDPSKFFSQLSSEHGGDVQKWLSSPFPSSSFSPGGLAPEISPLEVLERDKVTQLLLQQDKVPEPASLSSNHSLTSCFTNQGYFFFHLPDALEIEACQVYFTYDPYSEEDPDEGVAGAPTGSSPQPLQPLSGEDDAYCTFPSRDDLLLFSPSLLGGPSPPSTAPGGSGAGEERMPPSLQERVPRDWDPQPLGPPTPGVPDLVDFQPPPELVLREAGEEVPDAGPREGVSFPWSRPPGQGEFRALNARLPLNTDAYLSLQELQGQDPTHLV
T1 sequence 2: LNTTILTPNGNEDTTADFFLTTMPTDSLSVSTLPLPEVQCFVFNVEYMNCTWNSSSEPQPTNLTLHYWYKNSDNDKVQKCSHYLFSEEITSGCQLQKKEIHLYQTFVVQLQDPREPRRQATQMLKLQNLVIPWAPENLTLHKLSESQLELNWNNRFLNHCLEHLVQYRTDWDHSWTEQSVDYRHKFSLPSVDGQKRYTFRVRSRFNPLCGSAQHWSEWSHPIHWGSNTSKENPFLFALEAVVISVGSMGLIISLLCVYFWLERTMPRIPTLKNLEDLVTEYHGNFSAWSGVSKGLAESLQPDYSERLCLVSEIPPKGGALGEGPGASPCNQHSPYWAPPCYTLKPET

Biotinylated hIL2RG = target: T2, Biotinylated hIL2RG (human, UniProt P31785 23-262, limits assumed, biotinylated (site not stated)); experiment: BLI (Octet RED96), biotinylated hIL2RG on streptavidin sensors, 200 nM protein + 200 nM hIL2RB
T2 construct: also called human common gamma receptor (hIL2RG); hIL-2Rγc
T2 sequence: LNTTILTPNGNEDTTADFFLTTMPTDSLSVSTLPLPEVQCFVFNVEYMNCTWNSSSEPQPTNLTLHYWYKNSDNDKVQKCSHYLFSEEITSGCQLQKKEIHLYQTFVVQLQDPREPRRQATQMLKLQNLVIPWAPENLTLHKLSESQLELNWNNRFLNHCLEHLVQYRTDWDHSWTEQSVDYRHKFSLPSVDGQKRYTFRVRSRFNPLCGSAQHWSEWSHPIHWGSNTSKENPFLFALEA
Protocol: Biotinylated hIL2RG molecules were immobilized to Streptavidin sensors (SA, ForteBio) at 2 μg/mL in binding buffer (10 mM HEPES, pH 7.4, 150 mM NaCl, 3 mM EDTA, 0.05% surfactant P20, 0.5% non-fat dry milk). After baseline measurement in the binding buffer alone, the binding kinetics were monitored by dipping the biosensors in wells containing 200 nM of protein and 200 nM of hIL2RB for 300 sec. Data were collected in an Octet RED96 (ForteBio) and processed using the instrument's integrated software.

[2] = target: T3, hIL-2RBG (biotinylated hIL2RG on the sensor with hIL2RB in solution) (UniProt P14784 27-240; P31785 23-262, biotinylated (site not stated)); experiment: BLI competition, inhibition of hIL-2 binding
T3 chain 1: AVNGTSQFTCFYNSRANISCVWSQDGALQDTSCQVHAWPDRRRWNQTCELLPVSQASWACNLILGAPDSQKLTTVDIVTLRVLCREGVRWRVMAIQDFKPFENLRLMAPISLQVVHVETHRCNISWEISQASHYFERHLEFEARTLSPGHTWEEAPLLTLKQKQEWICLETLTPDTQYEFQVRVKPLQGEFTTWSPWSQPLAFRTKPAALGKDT
T3 chain 2: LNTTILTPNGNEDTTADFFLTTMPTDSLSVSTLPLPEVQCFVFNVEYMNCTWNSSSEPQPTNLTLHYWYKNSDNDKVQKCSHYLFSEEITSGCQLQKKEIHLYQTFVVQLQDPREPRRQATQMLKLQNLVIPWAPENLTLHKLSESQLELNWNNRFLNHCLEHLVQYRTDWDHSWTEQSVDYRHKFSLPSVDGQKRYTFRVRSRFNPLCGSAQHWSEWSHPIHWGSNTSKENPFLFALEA

Biotinylated hIL2RB = target: T4, Biotinylated hIL2RB (UniProt P14784 27-240, biotinylated (site not stated)); experiment: BLI
T4 chain: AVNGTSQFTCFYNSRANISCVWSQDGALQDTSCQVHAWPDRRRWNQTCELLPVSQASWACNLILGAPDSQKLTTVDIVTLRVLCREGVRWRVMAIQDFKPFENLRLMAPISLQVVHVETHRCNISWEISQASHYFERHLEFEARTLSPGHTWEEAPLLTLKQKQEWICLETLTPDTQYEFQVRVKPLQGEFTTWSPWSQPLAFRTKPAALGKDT

hIL2RG-fc chimera [3] = target: T5, hIL2RG-fc chimera (human, UniProt P31785 23-262); experiment: BLI (Octet RED96e), hIL2RG-fc (AcroBiosystems) on anti-human IgG Fc sensors
T5 construct: also called hIL2G; hIL2 receptor gamma; not shown: Fc part of the bought chimera (captured on anti-human IgG Fc biosensors)
T5 sequence: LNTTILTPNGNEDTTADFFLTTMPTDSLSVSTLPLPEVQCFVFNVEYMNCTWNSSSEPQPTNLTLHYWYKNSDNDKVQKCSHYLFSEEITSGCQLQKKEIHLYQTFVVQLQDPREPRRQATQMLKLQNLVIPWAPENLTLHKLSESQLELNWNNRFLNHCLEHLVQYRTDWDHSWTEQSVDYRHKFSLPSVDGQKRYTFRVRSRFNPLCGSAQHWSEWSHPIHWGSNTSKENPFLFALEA
Protocol: (§1) For this purpose, sensors were soaked in samples containing 20 nM of hIL2RG-fc chimera (AcroBiosystems) for 300 sec. […] Finally, sensors were removed from the protein samples and dipped in buffer solutions to promote and measure dissociation (1500 sec). The buffer used to prepare all the samples and soak the sensors was HBS-EP+ from GE Healthcare, which contains 10 mM HEPES, 150 mM NaCl, 3 mM EDTA and 0.05% v/v surfactant P20, pH 7.4. Data were acquired at 30° C. using an Octet RED96e system (ForteBio) and processed using the instrument's integrated software. Kinetics were fitted to a 1:1 binding model after subtracting a buffer signal baseline and the Kd values were calculated.

hIL2RB-fc chimera [4] = target: T6, hIL2RB-fc chimera (human, UniProt P14784 27-240); experiment: BLI (Octet RED96e), hIL2RB-fc (AcroBiosystems) on anti-human IgG Fc sensors
T6 construct: also called hIL2 receptor beta; hIL-2Rβ; not shown: Fc part of the bought chimera (captured on anti-human IgG Fc biosensors)
T6 sequence: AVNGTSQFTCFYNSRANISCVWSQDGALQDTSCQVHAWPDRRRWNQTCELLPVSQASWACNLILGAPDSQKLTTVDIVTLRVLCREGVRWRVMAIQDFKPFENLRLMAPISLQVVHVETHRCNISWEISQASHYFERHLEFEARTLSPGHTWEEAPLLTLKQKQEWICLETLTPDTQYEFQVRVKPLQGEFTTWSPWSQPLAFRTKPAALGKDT
Protocol: as §1, with “hIL2RB-fc” for “hIL2RG-fc”, “HBS-EP+from” for “HBS-EP+ from”

[5] = target: T1, human IL-2 receptor (IL-2Rβγc) on cells; experiment: cell-based or functional assay; remark: listed apart in the source
hIL2RB-fc chimera [6] = target: T6, hIL2RB-fc chimera; experiment: BLI competition: hIL2RG-fc on sensor, dilutions of P3 + 20 nM Neo-2/15 + 50 nM hIL2RB-fc; competitor Neo-2/15; read-out binding to hIL2RBG
Protocol: (§2) All samples were prepared using HBS-EP+buffer from GE Healthcare, which contains 10 mM HEPES, 150 mM NaCl, 3 mM EDTA and 0.05% v/v surfactant P20, pH 7.4. Data were acquired at 30° C. using an Octet RED96e system (ForteBio) and processed using the instrument's integrated software. IC50 values were estimated from response vs antagonist concentration plots.

[7] = target: T1, human IL-2 receptor (IL-2Rβγc) on cells; experiment: cell-based or functional assay; remark: listed apart in the source
hIL2RB-fc chimera [8] = target: T6, hIL2RB-fc chimera; experiment: BLI (Octet RED96e), hIL2RB-fc (Symansis) on anti-human IgG Fc sensors
Protocol: as §1, with “hIL2RB-fc” for “hIL2RG-fc”, “(Symansis)” for “(AcroBiosystems)”, “HBS-EP+from” for “HBS-EP+ from”

mouse IL-2 beta receptor = target: T7, mouse IL-2 beta receptor (mouse, UniProt P16297 27-240); experiment: BLI competition: mIL2RG on sensor, dilutions of P3 + 20 nM Neo-2/15; competitor Neo-2/15; read-out binding to mIL2RBG
T7 construct: also called mIL2RB; beta part of mIL2RBG
T7 sequence (looked up): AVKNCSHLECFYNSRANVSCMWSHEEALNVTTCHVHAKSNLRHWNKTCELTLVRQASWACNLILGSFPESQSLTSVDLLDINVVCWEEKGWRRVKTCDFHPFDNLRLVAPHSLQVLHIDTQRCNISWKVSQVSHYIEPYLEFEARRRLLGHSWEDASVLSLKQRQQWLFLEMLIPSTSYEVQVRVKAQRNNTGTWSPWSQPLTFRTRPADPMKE
Protocol: as §2

hIL2RG-fc chimera [9] = target: T5, hIL2RG-fc chimera; experiment: BLI (Octet RED96e), hIL2RG-fc on anti-human IgG Fc sensors, 200 nM P3 + 200 nM hIL2RB-fc
Protocol: (§3) All samples were prepared using HBS-EP+ buffer from GE Healthcare, which contains 10 mM HEPES, 150 mM NaCl, 3 mM EDTA and 0.05% v/v surfactant P20, pH 7.4. Data were acquired at 30° C. using an Octet RED96e system (ForteBio) and processed using the instrument's integrated software.

hIL2RG-fc chimera [10] = target: T5, hIL2RG-fc chimera; experiment: BLI (Octet RED96e), hIL2RG-fc (Symansis) on anti-human IgG Fc sensors, protein + 200 nM hIL2RB-fc
Protocol: as §3

hIL2RG-fc chimera [11] = target: T5, hIL2RG-fc chimera; experiment: BLI (Octet RED96e), hIL2RG-fc on anti-human IgG Fc sensors
Protocol: as §1

B1: Protein 6 (P6) (designed binder)
chain: PKKKIQLFAEHALYDAEMILKIVKTNSPPAEEELEDYAFNFELILEEIARLFESGDQKDEAEKAKRMKEWMKRIKTTASEDEQEEMANKIRKILEEWIRS
notes: P5 with 'Y8F' (printed; P5 has H at 8) and K33E; N-terminal 6xHis tag and thrombin site in the expression vector
[1]
  Signaling Inhibition IC50 (1 nM hIL-2, pSTAT5, CD4+ T cells): 1.84 nM
  Signaling Inhibition IC50 (1 nM hIL-2, pSTAT5, CD8+ T cells): 0.41 nM
  Signaling Inhibition IC50 (1 nM hIL-2, pSTAT5, all T cells): 0.83 nM
Biotinylated hIL2RG
  binding result: no binding (tested: 200 nM)
[2]
  IC50: 83 nM
Biotinylated hIL2RB
  Kd: < 1 nM

B2: Protein 1 (P1) (designed binder)
chain: PKKKIQLHAEHARYDAEMILNIVKTNSPPAEEKLEDYAFNFELILEEIARLFESGDQKDEAEKAKRMKEWMKRIKTTASEDEQEEMANAIITILTSWIRS
notes: N-terminal 6xHis tag and thrombin site in the expression vector
hIL2RG-fc chimera [3]
  Kd: 1190 nM
hIL2RB-fc chimera [4]
  Kd: 17 nM
[5]
  Induced Signaling EC50 (pSTAT5, YT-1 CTLL-2 cells): 557 nM

B3: Protein 5 (P5) (designed binder)
chain: PKKKIQLHAEHALYDAEMILKIVKTNSPPAEEKLEDYAFNFELILEEIARLFESGDQKDEAEKAKRMKEWMKRIKTTASEDEQEEMANKIRKILEEWIRS
notes: as for B2
[1]
  Signaling Inhibition IC50 (1 nM hIL-2, pSTAT5, CD8+ T cells): 77.7 nM
Biotinylated hIL2RG
  binding result: no binding (tested: 200 nM)
[2]
  IC50: 100 nM
Biotinylated hIL2RB
  Kd: 12 nM

B4: Protein 3 (P3) (designed binder)
chain: PKKKIQLYAEHARYDAEMILNIVKTNSPPAEEELEDYAFNFELILEEIARLFESGDQKDEAEKAKRMKEWMKRIKTTASEDEQEEMANAIITILTSWIRS
notes: P1 with H8Y and K33E; N-terminal 6xHis tag and thrombin site in the expression vector
hIL2RB-fc chimera [6]
  IC50: 12.5 nM
[7]
  Binding Inhibition IC50 (inhibition of hIL-2 pSTAT5 signaling, human pan T cells, 0.1 nM hIL2): 1.4 nM
  Binding Inhibition IC50 (inhibition of hIL-2 pSTAT5 signaling, human pan T cells, 1 nM hIL2): 11.7 nM
  Binding Inhibition IC50 (inhibition of hIL-2 pSTAT5 signaling, human pan T cells, 10 nM hIL2): 863 nM
hIL2RB-fc chimera [8]
  Kd: 0.2 nM
Mouse IL-2 beta receptor
  IC50: > 200 nM
hIL2RG-fc chimera [9]
  binding result: no binding (tested: 200 nM)

B5: Neo-2/15 (designed binder)
chain: PKKKIQLHAEHALYDALMILNIVKTNSPPAEEKLEDYAFNFELILEEIARLFESGDQKDEAEKAKRMKEWMKRIKTTASEDEQEEMANAIITILQSWIFS
notes: Proteins were expressed in E. coli with an N-terminal 6xHis tag and thrombin site; also called Neoleukin-2/15
hIL2RG-fc chimera [10]
  Kd: 277 nM
hIL2RG-fc chimera [3]
  Kd: 277 nM

B6: Protein 2 (P2) (designed binder)
chain: PKKKIQLHAEHALYDAEMILKIVKTNSPPAEEKLEDYAFNFELILEEIARLFESGDQKDEAEKAKRMKEWMKRIKTTASEDEQEEMANRIRKILEEWIRS
notes: as for B2
hIL2RG-fc chimera [11]
  binding result: no binding (tested: 5000 nM (highest concentration tested))
hIL2RB-fc chimera [4]
  Kd: 21 nM
[5]
  Induced Signaling EC50 (pSTAT5, YT-1 CTLL-2 cells): 426 nM
